One variant from IntAct's records for PubMed 7877691 can be followed below.

Sequences and labels used below:
B1: Retinoblastoma-associated protein (Homo sapiens), P06400 (parent)
chain: MPPKTPRKTAATAAAAAAEPPAPPPPPPPEEDPEQDSGPEDLPLVRLEFEETEEPDFTALCQKLKIPDHVRERAWLTWEKVSSVDGVLGGYIQKKKELWGICIFIAAVDLDEMSFTFTELQKNIEISVHKFFNLLKEIDTSTKVDNAMSRLLKKYDVLFALFSKLERTCELIYLTQPSSSISTEINSALVLKVSWITFLLAKGEVLQMEDDLVISFQLMLCVLDYFIKLSPPMLLKEPYKTAVIPINGSPRTPRRGQNRSARIAKQLENDTRIIEVLCKEHECNIDEVKNVYFKNFIPFMNSLGLVTSNGLPEVENLSKRYEEIYLKNKDLDARLFLDHDKTLQTDSIDSFETQRTPRKSNLDEEVNVIPPHTPVRTVMNTIQQLMMILNSASDQPSENLISYFNNCTVNPKESILKRVKDIGYIFKEKFAKAVGQGCVEIGSQRYKLGVRLYYRVMESMLKSEEERLSIQNFSKLLNDNIFHMSLLACALEVVMATYSRSTSQNLDSGTDLSFPWILNVLNLKAFDFYKVIESFIKAEGNLTREMIKHLERCEHRIMESLAWLSDSPLFDLIKQSKDREGPTDHLESACPLNLPLQNNHTAADMYLSPVRSPKKKGSTTRVNSTANAETQATSAFQTQKPLKSTSLSLFYKKVYRLAYLRLNTLCERLLSEHPELEHIIWTLFQHTLQNEYELMRDRHLDQIMMCSMYGICKVKNIDLKFKIIVTAYKDLPHAVQETFKRVLIKEEEYDSIIVFYNSVFMQRLKTNILQYASTRPPTLSPIPHIPRSPYKFPSSPLRIPGGNIYISPLKSPYKISEGLPTPTKMTPRSRILVSIGESFGTSEKFQKINQMVCNSDRVLKRSAEGSNPPKPLKKLRFDIEGSDEADGSKHLPGESKFQQKLAEMTSTRTRMQKQKMNDSMDTSNKEEK
partner: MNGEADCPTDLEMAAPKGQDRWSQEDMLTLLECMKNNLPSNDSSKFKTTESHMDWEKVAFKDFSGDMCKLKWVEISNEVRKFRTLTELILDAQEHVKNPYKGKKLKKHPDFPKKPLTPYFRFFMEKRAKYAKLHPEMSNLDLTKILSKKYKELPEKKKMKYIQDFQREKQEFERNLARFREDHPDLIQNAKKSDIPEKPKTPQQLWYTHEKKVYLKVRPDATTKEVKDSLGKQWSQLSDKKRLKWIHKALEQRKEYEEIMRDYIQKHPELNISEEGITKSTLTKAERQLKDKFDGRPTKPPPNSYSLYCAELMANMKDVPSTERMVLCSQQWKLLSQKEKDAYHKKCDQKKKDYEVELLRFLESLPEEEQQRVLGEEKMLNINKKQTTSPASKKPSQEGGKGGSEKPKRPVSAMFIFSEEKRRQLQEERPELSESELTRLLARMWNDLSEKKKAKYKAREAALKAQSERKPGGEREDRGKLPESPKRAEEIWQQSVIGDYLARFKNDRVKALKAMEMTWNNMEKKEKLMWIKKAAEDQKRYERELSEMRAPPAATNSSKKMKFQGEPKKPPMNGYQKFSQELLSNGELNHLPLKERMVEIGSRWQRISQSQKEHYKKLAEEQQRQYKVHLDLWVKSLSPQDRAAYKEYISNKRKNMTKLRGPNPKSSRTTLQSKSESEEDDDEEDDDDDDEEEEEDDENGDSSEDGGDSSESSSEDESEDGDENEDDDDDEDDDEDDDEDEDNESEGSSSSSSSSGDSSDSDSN

The variants in the assay derive from B1. The conditions noted are these: with ubf1_rat Ubtf.
Take C706F: the “effect of a mutation on the interaction” value is on record as “disrupting interaction”.
